This passage reports binding result, Kd and koff results from US20140302035A1 (MERRIMACK PHARMACEUTICALS, published 2014).

For orientation: Kd means the concentration at which binding is half-saturated. A word on the koff: it is the first-order rate constant of dissociation.

Test [1] has as its target T1, Human EpCAM-Fc-his tagged (human).
T1 construct: also called Recombinant polyhistidine-tagged EpCAM-Fc; recombinant EpCAM
Kind of test: BLI (ForteBio Octet), antibody loaded on Protein A tips, recombinant polyhistidine-tagged EpCAM-Fc in solution.

For test [2], the target named is T1, Human EpCAM-Fc-his tagged. Kind of test: BLI (ForteBio Octet), antibody loaded on Protein A tips, recombinant polyhistidine-tagged EpCAM-Fc in solution, 1:1 model. An outline of the steps:
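Biolayer interferometry at room temperature in 1×PBS: antibody (50 μg/ml) captured on Protein A tips for 4 min, then 4 min association with antigen in solution and 4 min dissociation. Kd, kₒₙ and kdiss were obtained from a 1:1 binding model fit.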
On the technique in general: In BLI a coated tip is dipped into the sample, and binding shifts an interference pattern.

For a further test, the target named is T2, cMet-his (Homo sapiens (Human), UniProt P08581 25-933).
T2 construct: also called his tagged cMET; Recombinant polyhistidine-tagged c-Met
Kind of test: BLI (ForteBio Octet), antibody loaded on Protein A tips, recombinant polyhistidine-tagged c-Met in solution, 1:1 model. The method, then:
(§1) For Octet analysis, all reagents and samples are brought to room temperature. Protein A sensor tips (ForteBio, #18-5010) are hydrated for 10 minutes in 1×PBS. Assay steps include: 1-2 minutes of equilibration in 1×PBS, 4 minutes of antibody loading (concentration of 50 μg/ml in 1×PBS), 1-2 minutes of baseline stabilization, 4 minutes of antibody:antigen association, and 4 minutes of antibody:antigen dissociation. 1×PBS is used as the matrix throughout. Data are analyzed with Octet Data Analysis software, processed, and fit to a 1:1 binding model to determine kinetic parameters (Kd, kₒₙ and kdiss).
Table A-4 describes approximate c-Met binding affinity and dissociation rate as determined for Ab#5 and Ab#7.

Test [3] deals with T1, Human EpCAM-Fc-his tagged. Kind of test: BLI (ForteBio Octet), repeat analysis, antibody on Protein A tips, recombinant polyhistidine-tagged EpCAM-Fc in solution, 1:1 model. On the procedure:
as §1
Table A-3 describes a repeat analysis for Ab#5, Ab#7, and Ab#13. For the repeat experiment, Kd and kdiss values for Ab#5, Ab#7, and Ab#13 are substantially equivalent to those determined for Ab#5, Ab#7, and Ab#13 in the initial experiment.

T1 sequence (chain, as listed by the source): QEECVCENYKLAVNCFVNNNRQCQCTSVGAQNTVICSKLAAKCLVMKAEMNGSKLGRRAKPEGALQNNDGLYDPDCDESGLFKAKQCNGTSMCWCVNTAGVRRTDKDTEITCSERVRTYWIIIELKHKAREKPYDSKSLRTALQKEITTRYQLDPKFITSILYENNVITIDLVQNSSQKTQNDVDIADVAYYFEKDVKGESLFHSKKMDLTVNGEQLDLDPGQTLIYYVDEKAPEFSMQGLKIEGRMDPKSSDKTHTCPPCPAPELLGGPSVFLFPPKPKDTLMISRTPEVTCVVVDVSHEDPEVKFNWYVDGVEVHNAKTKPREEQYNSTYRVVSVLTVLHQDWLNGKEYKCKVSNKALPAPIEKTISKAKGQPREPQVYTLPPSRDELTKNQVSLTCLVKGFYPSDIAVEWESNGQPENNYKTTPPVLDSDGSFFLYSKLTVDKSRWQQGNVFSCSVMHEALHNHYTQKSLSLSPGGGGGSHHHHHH

B1: Ab#2 (bispecific antibody, human IgG1, kappa)
heavy: QLQLQESGPGLVKPSETLSLTCTVSGGSISSSVYYWSWIRQPPGKGLEWIGVIYPSGNTYYSPSLKSRVTISVDTSKNQFSLKLSSVTAADTAVYYCARTIYDLFDIWGQGTMVTVSSASTKGPSVFPLAPSSKSTSGGTAALGCLVKDYFPEPVTVSWNSGALTSGVHTFPAVLQSSGLYSLSSVVTVPSSSLGTQTYICNVNHKPSNTKVDKKVEPKSCDKTHTCPSCPAPEFLGGPSVFLFPPKPKDTLMISRTPEVTCVVVDVSQEDPEVQFNWYVDGVEVHNAKTKPREEQFNSKYRVVSVLTVLHQDWLNGKEYKCKVSNKGLPSSIEKTISKAKGQPREPQVYTLPPSREEMTKNQVSLSCAVKGFYPSDIAVEWESNGQPENNYKTTPPVLDSDGSFFLVSKLTVDKSRWQQGNVFSCSVMHEALHNHYTQKSLSLSKSCDKTGGGGSGGGGSGGGGSGGGGSGGGGSGGGGSGGGGSGGGGSCPSCPAPEFLGGPSVFLFPPKPKDTLMISRTPEVTCVVVDVSQEDPEVQFNWYVDGVEVHNAKTKPREEQFNSDYRVVSVLTVLHQDWLNGKEYKCKVSNKGLPSSIEKTISKAKGQPREPQVYTLPPSREEMTKNQVSLWCLVKGFYPSDIAVEWESNGQPENNYKTTPPVLDSDGSFFLYSKLTVDKSRWQQGNVFSCSVMHEALHNHYTQKSLSLSGECGGGGSGGGGSQVQLVQSGSELKKPGESVKVSCKASGYTFTNYGMHWVRQAPGQGLKWMGWINTYTGESTYADDFKGRFAFSLDTSASTAYLQISSLKAEDTAVYFCARFAIKGDYWGQGTLVTVSSASTGGGGSGGGGSGGGGSGGGGSDIVMTQSPLSLPVTPGEPASISCRSTKSLLHSDGITYLYWYLQKPGQSPQLLIYQLSNLASGVPDRFSSSGSGTDFTLKISRVEAEDEGVYYCAQNLEIPYTFGQGTKVEIK
light: DIQMTQSPSSVSASVGDRVTITCRASQGISSWLAWYQQKPGKAPKLLIYAASSLQSGVPSRFSGSGSGTDFTLTISSLQPEDFATYYCLQANSFPPTFGGGTKVEIKRTVAAPSVFIFPPSDEQLKSGTASVVCLLNNFYPREAKVQWKVDNALQSGNSQESVTEQDSKDSTYSLSSTLTLSKADYEKHKVYACEVTHQGLSSPVTKSFNRGEC
notes: Anti-c-Met Fab / tandem Fc / anti-EpCAM scFv TFcBA; also called Antibody #2
With B1, the binding result in test [1] was “no binding”.

B2: Ab#7 (bispecific antibody, human IgG1, kappa)
heavy: QLQLQESGPGLVKPSETLSLTCTVSGGSISSSVYYWSWIRQPPGKGLEWIGVIYPSGNTYYSPSLKSRVTISVDTSKNQFSLKLSSVTAADTAVYYCARTIYDLFDIWGQGTMVTVSSASTKGPSVFPLAPSSKSTSGGTAALGCLVKDYFPEPVTVSWNSGALTSGVHTFPAVLQSSGLYSLSSVVTVPSSSLGTQTYICNVNHKPSNTKVDKKVEPKSCDKTHTCPSCPAPEFLGGPSVFLFPPKPKDTLMISRTPEVTCVVVDVSQEDPEVQFNWYVDGVEVHNAKTKPREEQFNSKYRVVSVLTVLHQDWLNGKEYKCKVSNKGLPSSIEKTISKAKGQPREPQVYTLPPSREEMTKNQVSLSCAVKGFYPSDIAVEWESNGQPENNYKTTPPVLDSDGSFFLVSKLTVDKSRWQQGNVFSCSVMHEALHNHYTQKSLSLSKSCDKTGGGGSGGGGSGGGGSGGGGSGGGGSGGGGSGGGGSGGGGSCPSCPAPEFLGGPSVFLFPPKPKDTLMISRTPEVTCVVVDVSQEDPEVQFNWYVDGVEVHNAKTKPREEQFNSDYRVVSVLTVLHQDWLNGKEYKCKVSNKGLPSSIEKTISKAKGQPREPQVYTLPPSREEMTKNQVSLWCLVKGFYPSDIAVEWESNGQPENNYKTTPPVLDSDGSFFLYSKLTVDKSRWQQGNVFSCSVMHEALHNHYTQKSLSLSGECGGGGSGGGGSDIVMTQSPLSLPVTPGEPASISCRSTKSLLHSDGITYLYWYLQKPGQSPQLLIYQLSNLASGVPDRFSSSGSGTDFTLKISRVEAEDEGVYYCAQNLEIPRTFGCGTKLEIKRTGGGGSGGGGSGGGGSGGGGSQVQLVQSGAEVKKPGESVKISCKASGYTFTNYGMNWVRQAPGQCLKWMGWINTYTGESTYADDFKGRFAFSLDTSASTAYLQLSSLRSEDTAVYFCARFAIKGDYWGQGTLVTVSS
light: B1 light
notes: Anti-c-Met Fab / tandem Fc / anti-EpCAM scFv TFcBA; also called Antibody #7
In the case of B2, the Kd in test [2] turned out to be 25.9 nM; with cMet-his, 2.81 nM; in test [3], 15.4 nM. Besides, the koff in test [2] worked out at 0.00132 s⁻¹; with cMet-his, 0.000554 s⁻¹; in test [3] it was 0.00137 s⁻¹.
